{"source": "paper doi:10.1101/2025.06.05.658000", "about": "(2025)", "assay_in_all_cases": "ELISA", "key": {"[1]": {"molecular_target": "HLA-DR (DRA1*01:01 / DRB1*04:01), soluble knob-into-hole Fc heterodimer (human)"}, "[2]": {"molecular_target": "HLA-DR (DRA1*01:01 / DRB1*16:02), soluble knob-into-hole Fc heterodimer (human)"}, "[3]": {"molecular_target": "HLA-DR (DRA1*01:01 / DRB1*15:02), soluble knob-into-hole Fc heterodimer (human)"}, "[4]": {"molecular_target": "HLA-DR (DRA1*01:01 / DRB1*03:01), soluble knob-into-hole Fc heterodimer (human)"}, "[5]": {"molecular_target": "HLA-DR (DRA1*01:01 / DRB1*04:06), soluble knob-into-hole Fc heterodimer (human)"}, "[6]": {"molecular_target": "HLA-DR (DRA1*01:01 / DRB1*15:01), soluble knob-into-hole Fc heterodimer (human)"}, "[7]": {"molecular_target": "HLA-DR (DRA1*01:01 / DRB1*13:01), soluble knob-into-hole Fc heterodimer (human)"}, "[8]": {"molecular_target": "HLA-DR (DRA1*01:01 / DRB1*04:05), soluble knob-into-hole Fc heterodimer (human)"}, "[9]": {"molecular_target": "HLA-DR (DRA1*01:01 / DRB1*01:01), soluble knob-into-hole Fc heterodimer (human)"}, "[10]": {"molecular_target": "HLA-DR (DRA1*01:01 / DRB1*04:03), soluble knob-into-hole Fc heterodimer (human)"}, "[11]": {"molecular_target": "HLA-DR (DRA1*01:01 / DRB1*07:01), soluble knob-into-hole Fc heterodimer (human)"}, "[12]": {"molecular_target": "HLA-DR (DRA1*01:01 / DRB1*12:01), soluble knob-into-hole Fc heterodimer (human)"}, "[13]": {"molecular_target": "HLA-DR (DRA1*01:01 / DRB1*09:01), soluble knob-into-hole Fc heterodimer (human)"}, "[14]": {"molecular_target": "HLA-DR (DRA1*01:01 / DRB1*11:04), soluble knob-into-hole Fc heterodimer (human)"}, "[15]": {"molecular_target": "HLA-DR (DRA1*01:01 / DRB1*04:04), soluble knob-into-hole Fc heterodimer (human)"}, "[16]": {"molecular_target": "HLA-DR (DRA1*01:01 / DRB1*15:03), soluble knob-into-hole Fc heterodimer (human)"}, "[17]": {"molecular_target": "HLA-DR (DRA1*01:01 / DRB1*01:02), soluble knob-into-hole Fc heterodimer (human)"}, "[18]": {"molecular_target": "HLA-DR (DRA1*01:01 / DRB1*10:01), soluble knob-into-hole Fc heterodimer (human)"}, "[19]": {"molecular_target": "HLA-DR (DRA1*01:01 / DRB1*13:02), soluble knob-into-hole Fc heterodimer (human)"}, "[20]": {"molecular_target": "HLA-DR (DRA1*01:01 / DRB1*14:54), soluble knob-into-hole Fc heterodimer (human)"}, "[21]": {"molecular_target": "HLA-DR (DRA1*01:01 / DRB1*14:01), soluble knob-into-hole Fc heterodimer (human)"}, "[22]": {"molecular_target": "HLA-DR (DRA1*01:01 / DRB1*12:02), soluble knob-into-hole Fc heterodimer (human)"}, "[23]": {"molecular_target": "HLA-DR (DRA1*01:01 / DRB1*11:01), soluble knob-into-hole Fc heterodimer (human)"}, "[24]": {"molecular_target": "HLA-DR (DRA1*01:01 / DRB1*04:07), soluble knob-into-hole Fc heterodimer (human)"}}}
{"binder": "KPVSKMRMATPLLMQALPM", "note": "[human CLIP peptide, unlabelled competitor]", "values": [{"measurement": "Ki", "setting": "[1]", "value": 6.46, "unit": "nM"}, {"measurement": "Ki", "setting": "[2]", "value": 47, "unit": "nM"}, {"measurement": "Ki", "setting": "[3]", "value": 23.1, "unit": "nM"}, {"measurement": "Ki", "setting": "[4]", "value": 23.9, "unit": "nM"}, {"measurement": "Ki", "setting": "[5]", "value": 8.27, "unit": "nM"}, {"measurement": "Ki", "setting": "[6]", "value": 6.31, "unit": "nM"}, {"measurement": "Ki", "setting": "[7]", "value": 350, "unit": "nM"}, {"measurement": "Ki", "setting": "[8]", "value": 41.9, "unit": "nM"}, {"measurement": "Ki", "setting": "[9]", "value": 6.04, "unit": "nM"}, {"measurement": "Ki", "setting": "[10]", "value": 5.96, "unit": "nM"}, {"measurement": "Ki", "setting": "[11]", "value": 6.87, "unit": "nM"}, {"measurement": "Ki", "setting": "[12]", "value": 37.8, "unit": "nM"}, {"measurement": "Ki", "setting": "[13]", "value": 11, "unit": "nM"}, {"measurement": "Ki", "setting": "[14]", "value": 2.92, "unit": "nM"}, {"measurement": "Ki", "setting": "[15]", "value": 7.75, "unit": "nM"}, {"measurement": "Ki", "setting": "[16]", "value": 11.1, "unit": "nM"}, {"measurement": "Ki", "setting": "[17]", "value": 5.52, "unit": "nM"}, {"measurement": "Ki", "setting": "[18]", "value": 13.3, "unit": "nM"}, {"measurement": "Ki", "setting": "[19]", "value": 4470, "unit": "nM"}, {"measurement": "Ki", "setting": "[20]", "value": 9.1, "unit": "nM"}, {"measurement": "Ki", "setting": "[21]", "value": 67, "unit": "nM"}, {"measurement": "Ki", "setting": "[22]", "value": 3.68, "unit": "nM"}, {"measurement": "Ki", "setting": "[23]", "value": 25.8, "unit": "nM"}, {"measurement": "Ki", "setting": "[24]", "value": 5.25, "unit": "nM"}]}
